Measurements from the nanobody polyreactivity screen of Harvey et al. (2022).

test: yeast display, Sf9 membrane polyspecificity reagent, FACS + sequencing; frameworks hold sequencing errors
Outline: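 Synthetic nanobody libraries on Saccharomyces cerevisiae BJ5465 were galactose-induced for 36–48 hours, stained 1 hour at 4 °C with 10% biotinylated, detergent-solubilized Sf9 membrane reagent and enriched on streptavidin microbeads. FACS then separated cells into low and high (top ~1%) gates by anti-HA (expression) and streptavidin (reagent binding) fluorescence. Genes were colony-PCR amplified, MiSeq 2 × 250 sequenced and CDR-length filtered. A clone's polyreactivity label is that of its gate of origin.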

Sequence	polyreactivity (PSR sort gate)
QVQLVESGGGLVQAGGSLRLSCAASGRIFTKYAMGWYRQAPGKDRELVAAISYRGGSTYYADSVKGRFTISRDNAQNTVYLQMNSLKPEDTAVYYCATSWTPNYFVTSDYWGQGTQVTVSS	high polyreactivity
QVQLVESGGGLVQAGGSLRLSCAASGRIFQRYTMGWYRQAPGKEREFVAAITYSGGSTHYADSVKGRFTISRDNAKNTVYLQMNSLKPEDTAVYYCIADRYYGRGYGYWGQGTQVTVSS	low polyreactivity
LVQLEDSGGGLVQGGGSLRLSCAASGRIFSANAMGCYRQATGKERELVASISTGGGRTYYADSVKGRFTISRDNAKNTVYLQMISLKPEDTAVYYCNAILRPFRVRGTYGTYGYDYWGQGTQVTVSS	high polyreactivity
QVQLVESGGGLVQAGGSLRLSCAASGIIFQRNDMGWYRQAPGKERELVANIRDGGITYADSVKGRFTISRDNAKNTVYLQMNSLKPEDTAVYYCARDDTSPGFGDQSSNAAYYYWGQGTQVTVSS	low polyreactivity
QVQLVESGGGLVQAGGSLRLSCADSGSIGLYAMGWYRQAPGKETELVAVISRNGGSTYYADSVKGRFTISRDNAKNTVYLQMNSLKPEDTAVYYCAKRRLERGTGDYWGQGTQVTVSS	high polyreactivity
QVQLVESGGGLVQAGGSLRLSCAASGRTFPSNVMGWYRQAPGKEREFVAAITTRGGNTRYADSVKGRFTISRDNAKNTVYLQMNSLKPEDTAVFYCAAKVKPGYDYWGQGTQVTVSS	low polyreactivity
QVQLVESGGGLVQAGGSLRFSCAASGSTFPSYAMGWYRQAPGKERELVAAITNGGSTTYADSVKGRFTISRDNAKITDYLQMNSLKPEDTAVYYCAARYYYYYYIRRDYWGQGTQVTVSS	low polyreactivity
QVQLVESGGGLVQAGRSHRLSCAASGRTFKPYAMGWYRPAPGKERELVARISGSGGSTYYADSVKGRFTISRDYAKNTVYLQMNSLNPEDIAVYYCATTPYYWFDYWGQGRQVTVSS	low polyreactivity
QVPLVESGGGLVQAGGSLRLSCAASGRLFGYNTMGWYRQAPGKERELVARISYDVDSTYYADSVKGRFTISRDNAKNTVYLQMNSLKPEDTAVYYCNARRSNLGSYIEYFGFDYWGQGTQVTVSS	low polyreactivity
QVQLVESGGGLVQAGGSLRLSCAASGSTFAWYAMGWYRQAPGKERELVAAISSGGRTYYADSVKGRFTISRDNAKNTVYLQMNSLKPEDTAVYYCNAVDWAYGMDYWGQGTQVTVSS	low polyreactivity
QVQLVESGGGLVQAGGSLRLSCAASGLTFSYYAMGWYRQAPGKERELVAAISGRGSTYYADSVKGRFTISRDNAKNTVYLQMNSLKPEDTAVYYCNAYGRFGLYDYWGQGTQVTVSS	high polyreactivity
QVQLVESGGGLVQAGGSLRLSCAASGLTFASYAMGWYRPAPGKERELVARISRSGGSTYYADSVKGRFTISRDNAKNTVYLQMNSLKPEDTAVYYCAADYIFRRYPVGGIYDYDYWGQGTQVTVSS	high polyreactivity
QVQLVESGGGLVQAGGSLRLSCAASGITFDYYGMGWYRQAPGKEGELVASITSGGSTNYADSVNGRFTISRDNAKNTVYLQMNSLKPEDTAVYYCNAEFWEVSPDRRDYDYWGQGTQVTVSS	low polyreactivity
QVQLVESGGGLVQAGGSLRLSCAASGSIFYVNTMGWYRQAPGKERELVAGITSRGGSTYYADSVKGRFTISRDNAKNTVYLQMNSLKPEDTAVYYCAKRAYGTALYRGYGYWGQGTQVTVSS	low polyreactivity
QVQLQESGGGLVQAGGSLRLSCAASGTISPLPAMGWYRQAPGKEREFVAGIDTGAITNYADSVKGRFTISRDNAKITVYLQMNSLKPEDTAVYYCAVFPAAYDYYERYYTYWGQGTQVTVSS	low polyreactivity
QVQLVDSRGCLVQAGGSLRLSFAASGSIFGYYSMVWYIQAPGKESELVAAISYSGSRTYYADSVKGRFTISRDNAKNTVYLQKNSLKPEDTAVYYCAVLRRDGFEYWGQGTQVTVSS	high polyreactivity
QVQLVYSGGGLVQAGGSLRLSCAASGSTFQAYDMGWYRQAPGKERELVAAITTGGSTNYADSVKGRFTISRDNAKNTVYLQLNSLKPEDTAVYYCNADFIYVLYYVVLYDYWGQGTQVTVSS	low polyreactivity
QVQLVESGGGLVQAGGSLRLSCAASGLIIYYYAMGWYRQAPGKERELVAAISGSSGASTYYADSVKGRFTISRVNAKNTVYIQMNSLKPEDSAVYYCAADRGYWRYDYWGQGTQVTVSS	low polyreactivity
QVQLVESGGGLVQAGGSLRLSCAASGRTIPTYVMGWYRQAPGKERELVASIRSGGRTKYADSVKGRFTISRDNAKNTVYLQMNSLKPEDTAVYYCAADYHGSPEYDYWGQGTQVTVSS	low polyreactivity
QVQLQESGGRLVQAGGSLRMSCAASGTIFSEANMGWYRQAPGKERELVATIGQGSTTNYADSVKGLFTISRDNAKNTVYLQMNSLKPEETAVYYCAVVTVDPVGFVYWGQGTQVTVSS	low polyreactivity
QVQLVESGGGLVQAGGSLRLSCAASGCIFVSHAMGWYRQAPGKERELVAAITSGDNTKYADSVKGRFTISRDNAKNTVYLQMNSLKPEDTAVYYCAVTYRYQGAGYYWGQGTQVTVSS	low polyreactivity
QVQLVESGGGLVQAGGSLRLSCAASGRTIRYYAMGWYRQAPGKERELVAAITQNGGRTYYADSVKGRFTISRDNAKNTVYLQMNSLKPEDTAVYYCAKAFIQPGYKYDSWGQGTQVTVSS	high polyreactivity

Sequence	polyreactivity (PSR sort gate)
QVQLVESGGGLVQAGGSLRLSCAASGSTLAPYAMGGYRQAPGKERELVASINWGGTTTYYADSVKGRFTISRDNAKNTVYLQMNSLIPEDTAVYYCAALGLRWGRSGYYYEYYYWGQGTQVTVSS	high polyreactivity
QVQLVESGGGLVQAGGSLRLSCAASGSILCLNAMGWYRQAPGKERELVADITRGGSTYYADSVKGRFTISRDNAKNTVYLQMNSLKPEDTAVYYCAADAYTGQIPYYYFEHYYWGQGTQVTVSS	high polyreactivity
QVQLVETRGGLVQAGGRLRLSCAASGGIFPVNAMGWYRQAPGKERELVAAISWSVGRTYYADSVKGRFTISRDNAKNTVYLQMISLKREDTAVYYCAAEWFGVYRRYKYDYCGQGTQVTVSS	low polyreactivity
QVQLVESGGGLVQAGGSLRLSGAASGSTCYYGMGWYRQAPGKYRELVAAISSRGGTPYYADSVKGRFTISRDNAKNTVYLQMTSLKPEDTAVDDCAAPVPYYVPRRNEGDYWGQGTQGTVSS	low polyreactivity
QVHLVESGGGLVQAGGSLRLTCAASGIIFRLYAMGWYRQAPGKEREFVARISKRGGSTYYADSVKGRFTISRDNSKNTVYLQMNSLKPEDTAVYYCAADAPLSYYHDYDYWGQGTQVTVSS	high polyreactivity
QVQLVESGGGLVQAGGSLRLSCAASGHTFAYNAMGWYRQAPGKEREFVAAITWSTDNTYYADSVKGRFTISRDNAKNTVYLQMNSLKPEDTAVYYCAKDAAESYRYGYWGQGTQVTVSS	low polyreactivity
QVQLEESGGGLVQAGGSLRLSCAASGFTFHPNAMGWYRQAPGKERELVAAIRYSTGRTYYADSVKGRFTISRDNAKNTVYLQMNSLKPEDTAVYYCAREALQYPGLKYNYWGQGTQVTVSS	low polyreactivity
QVQLVESAGGLVQAGGSLRLSCAASGGIFSRYSMGWYRQAPGKERELVAAITRSGGSTYYADSVKGRFTISRDNAKNTVYLQLNSLKPEDTAVYYCSARRRGGSKYGYWGQGTQVTVSS	high polyreactivity
QVQLVESGGGLVQAGGSLRLSCAASGRIFSNNAMGWYRQAPGKERELVAAISSSGSTYYADSVKGRFTISRDNAKNTVYLLMNSLKPEDTAVYYCAVVYGYPYLRGYVYGFNYWGQGTQVTVSS	low polyreactivity
QVQLVESGGALVQAGGSLRLSCAASGFTFSAYAMGWYRQAPVKEREMVASISRGGITNYADSVKGRFTISRDNAKNTVYLQMNSLQPEDTAFYYCAVDYSFRYDYVQRYYYWGQGTQVSVSS	high polyreactivity
QVQLVESGGGLVQAGGSLRLSCAASGFIIPGYAMGWYRQAPGKERELVAAISSGTSTYYADSVKGRFTISRDNAKNTVYLQMNSLKPEDTAVYYCAAETWYRFGYWGQGTQVTVSS	low polyreactivity
QVQLVESGGGLVQAGGSLRLSCAASGRTFGIYALGWYRQAPGKERELVAAITGRGGSTHYADSVKGRFTISRDNAKNTVYLQMNSLKPEDTAVYYCNAEGVYYDYKYGYYGYDYWGQGTQVTVSS	low polyreactivity
QVQLVESGGGLVQAGGSLRLSCAASGRTFYGYAMGWYRQAPGKERELVASISWSTGSTHYADSVKGRFTISRDNAKNTVYLQMNSLKPEDTAVYYCAAPFWRDSYVQIDYDYWGQGTQVTVSS	low polyreactivity
QVQLVESGGGLVQAGGSLRLICAASGSTFGPYAMGWYRQAPGKERELVADITVSDGSTYYADSVKGRFTISRDNAKNTVYLQMNSLNPEDTAVYYCAAEIYYSFGYWGQGTQVTVSS	low polyreactivity
QVQLVESGGGLVQAGGSLRLSCAASGITFYYYAMGWYRQAPGKLRELVARINSGGSTNYADSVKGRFTISRDNAKNTVYLQMNSLKPEDTAVYYCNAKFRFGTYKTPYDYWGQGTQVTVSS	low polyreactivity
QVQLVESGGGLFQAGGSLRLSCAASGSTFRFNAKGWYRQAPGKERQFVAAIRFTGGSTYYADSVKGRFTISRDNAKNTVYLQMNSLKPEDTAVYYCINADEYSTVEYDYWGQGTQVSVSS	low polyreactivity
QVQLVESGGGLVQAGGSLRLSCAASGIILVRNAMGWYRQAPGKERELVAAISKSGGRTYYADSVKGRFTISRDNAKNTVYLQMNSLKPEDTAVYYCNVLTYHDFDYWGQGSQVTVSS	high polyreactivity
QVQLVESGGGLVQAGGSLRLSCAASGFTLGGNALGWYRQAPGKERELVAAITFSGGSTYYADSVKGRFTISRDNAKNIVYLQMNSLKPVDTAVYYCAKTHGYYYYYTYDYWGQGTQVTVSS	low polyreactivity
QVQLVESGGGLVQAGGSLRLSCAASGSTFQGYALRWYRQAPGKERELVAAITKRSGRTYYADSVKGRFTISRDNAKNTVYLQMNSLKPEDTAVYYCAKVTSYSEYDYWGQGTQVTVSS	high polyreactivity
QVQLVESGGGLVQAGGSLRLSCAASGRTFDVYAMGWYRQAPGKEREFVASITRSGASTYADSVKGRFTISRDNAKNTVYLQMNSLKPEDTAVYYCNAELDLDTGWDGFVAYDYWGQGTQVSVSS	low polyreactivity
QVQLVESGGGLVQAGGSLRLSCAASGYIFSDNTMGWYRQAPGKERELVAVITSGTSTSYADSVKGRFTISRDNAKNTVYLQMNSLKPEDTAVYYAARTGQYKTYGEYDYWGQGTQVTVSS	low polyreactivity
